Experiment [1] has as its target T1, prefusion Hendra virus (HeV) F protein (Hendra virus, reference strain …).
T1 chain: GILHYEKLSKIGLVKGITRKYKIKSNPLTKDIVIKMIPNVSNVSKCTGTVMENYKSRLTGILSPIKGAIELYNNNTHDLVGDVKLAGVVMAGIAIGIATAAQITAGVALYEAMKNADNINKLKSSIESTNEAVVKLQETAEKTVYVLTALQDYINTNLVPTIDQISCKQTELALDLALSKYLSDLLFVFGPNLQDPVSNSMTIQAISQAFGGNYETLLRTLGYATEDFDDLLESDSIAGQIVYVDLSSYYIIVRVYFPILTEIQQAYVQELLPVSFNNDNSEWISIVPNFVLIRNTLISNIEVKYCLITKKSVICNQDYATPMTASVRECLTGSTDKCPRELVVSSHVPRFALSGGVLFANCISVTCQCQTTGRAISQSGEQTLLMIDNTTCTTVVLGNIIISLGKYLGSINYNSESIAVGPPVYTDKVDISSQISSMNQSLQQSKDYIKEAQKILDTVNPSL
As to the kind of experiment: BLI. Particulars: both partners purified.

In experiment [2] the target is T2, prefusion Hendra virus (HeV) F (Hendra virus, reference strain …, stabilised).
T2 chain: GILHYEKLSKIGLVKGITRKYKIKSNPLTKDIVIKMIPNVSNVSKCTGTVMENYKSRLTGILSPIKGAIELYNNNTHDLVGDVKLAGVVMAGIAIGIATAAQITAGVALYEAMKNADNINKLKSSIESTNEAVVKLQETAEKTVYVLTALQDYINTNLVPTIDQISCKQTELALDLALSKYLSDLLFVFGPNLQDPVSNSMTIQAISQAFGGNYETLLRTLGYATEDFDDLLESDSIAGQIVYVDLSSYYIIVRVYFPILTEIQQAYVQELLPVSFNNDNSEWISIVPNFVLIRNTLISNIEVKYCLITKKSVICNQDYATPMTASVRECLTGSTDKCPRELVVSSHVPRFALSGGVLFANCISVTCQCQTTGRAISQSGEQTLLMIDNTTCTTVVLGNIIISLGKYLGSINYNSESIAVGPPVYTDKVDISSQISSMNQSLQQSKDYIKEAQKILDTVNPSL
As to the kind of experiment: BLI. To be noted: both partners purified.

The text below walks through data of paper PMC10021056 (Nature Communications, 2023).

B1: Fab 4F6 (Fab, V domains shown)
VH: QVQLQQSGAELVKPGASVKLSCKASGYTFTSNWMHWVKQRPGRGLEWIGRIDPNSGGTKYNEKFKSKATLTVDKPSSTAYMQLSSLTSEDSAVYYCARDGHYAYFDVWAPGTTVTVSS
VL: DIVMTQSQKFMSTSVGDRVSVTCKASQNVGTTVAWYQQKPGQSPNALIYSASYRYTGVPDRFTGSGSGTDFTLTISNVQSEDLAEYFCQQYNRYPWTFGGGTKLEIK
B1: the binding result in experiment [1] is recorded as “binds”.

B2: Fab 4F6 (Fab, V domains shown)
VH: QVQLQQSGAELVKPGASVKLSCKASGYTFTSNWMHWVKQRPGRGLEWIGRIDPNSGGTKYNEKFKSKATLTVDKPSSTAYMQLSSLTSEDSAVYYCARDGHYAYFDVWAPGTTVTVSS
VL: DIVMTQSQKFMSTSVGDRVSVTCKASQNVGTTVAWYQQKPGQSPNALIYSASYRYTGVPDRFTGSGSGTDFTLTISNVQSEDLAEYFCQQYNRYPWTFGGGTKLEIK
notes: recombinant Fab of m13
As to B2, the binding result in experiment [2] was “binds”.

B3: Fab 2D3 (Fab, V domains shown)
VH: QVQLKQSGPGLVAPSQSLSITCTVSGFSLTSYALSWVRQPPGKGLEWLGVIWVGGVTNYNSALKSRLTISKDNSKSQVFLKMNSLQSEDTARYYCASRHLSTGAMDYWGQGTSVTVSA
VL: DVLMTQSPLSLPVSLGDQASISCRSSQSIVHSNGDTYFEWYLQKPGQSPKLLIYKVSNRFSGVPNRFSGSGSGTDFTLKISRVEAEDLGVYYCFQGSYVPYTFGGGTKLEIK
notes: recombinant Fab of m5
On to B3, for which the binding result in experiment [2] is recorded as “binds”.

B4: Fab 1H8 (Fab, V domains shown)
VH: EVQLQQSGPELVKPGASVKISCKASGYSFTGYTMNWVKQSHGKNLEWIGLINPFIGGTRYNQKFKGKATLTVDKSSRTAYMELLSLTSEDSAVYYCAREADYDWYFDVWGAGTTVTVSS
VL: DIQMTQTTSSLSASLGDRVTISCRASQDISNYLHWYQQKPDGTVNLLIFYTSRLHSGVPSRFSGSGSGTDYSLTISNLEQEDIATYFCQQGNTLPRTFGGGTKLEIK
notes: recombinant Fab of m6
As to B4, the binding result in experiment [2] is listed as “binds”.

B5: Fab 1H1 (Fab, V domains shown)
VH: VQLQQSGAELMRPGASMKISCKATGYTFSSYWIDWVKQRPGHGLEWIGEILPGSGDTNYNENFKGKAAFTADTSSNTAYMQLTSLTSEDSAVFYCARGGRYHGQGFFDYWGQGTTLTVSS
VL: IQMTQSPASLSASVGETVTITCRPSENVHIYLAWYQQKQGKSPQLLVYNAKTLADGVPSRFSGSASGTQFSLKINSLQPEDFGSYYCQHFWSIPYTFGGGTKLEIK
With B5, the binding result in experiment [1] is recorded as “binds”.

B6: Fab 1H1 (Fab, V domains shown)
VH: VQLQQSGAELMRPGASMKISCKATGYTFSSYWIDWVKQRPGHGLEWIGEILPGSGDTNYNENFKGKAAFTADTSSNTAYMQLTSLTSEDSAVFYCARGGRYHGQGFFDYWGQGTTLTVSS
VL: IQMTQSPASLSASVGETVTITCRPSENVHIYLAWYQQKQGKSPQLLVYNAKTLADGVPSRFSGSASGTQFSLKINSLQPEDFGSYYCQHFWSIPYTFGGGTKLEIK
notes: recombinant Fab of m8
Take B6: the binding result in experiment [2] was “binds”.

B7: Fab 2B12 (Fab, V domains shown)
V domain 1: EVQLVESGGGLVQPKGSLKLSCAASGFIFNTYAMHWVRQAPGKGLEWVARIRSKSSNYATYYADSVKDRFTISRDDSQSMLYLQMNNLKTEDTAMYYCVREGGYYFDYWGQGTTLTFSA
V domain 2: DIVMSQSPSSLAVSVGEKVTMSCKSSQSLLHVSNQKNYLAWYQQKPGQSPKLLIYWASTRESGVPDRFTGSGSGTDFTLTISSVKAEDLAVYYCQQYYSYPWPFGGGTKLKSN
With B7, the binding result in experiment [1] is “binds”.

B8: Fab 2B12 (Fab, V domains shown)
V domain 1: EVQLVESGGGLVQPKGSLKLSCAASGFIFNTYAMHWVRQAPGKGLEWVARIRSKSSNYATYYADSVKDRFTISRDDSQSMLYLQMNNLKTEDTAMYYCVREGGYYFDYWGQGTTLTFSA
V domain 2: DIVMSQSPSSLAVSVGEKVTMSCKSSQSLLHVSNQKNYLAWYQQKPGQSPKLLIYWASTRESGVPDRFTGSGSGTDFTLTISSVKAEDLAVYYCQQYYSYPWPFGGGTKLKSN
notes: recombinant Fab of m9
On to B8, for which the binding result in experiment [2] is “binds”.

B9: Fab 1F2 (Fab, V domains shown)
VH: EVQLQQSGPELVKPGVSLKISCKASGYSFTDYTMNWVKQSHGKNLEWIGLINPYIGGTRYNQKFKGKATLTVDKSSSTAYLELLSLTSEDSAVYYCARFSGSSNRAMDYWGQGTSVTVSS
VL: DIQMTQSPASLSASVGETVTITCGASENIYGALNWYQRKQGKSPQLLIYGATNLADGMSSRFSGSGSARQYSLKISSLHPDDVATYYCQNVLSIPWTFGGGTKLEIK
Regarding B9, the binding result in experiment [1] is listed as “binds”.

B10: Fab 1F2 (Fab, V domains shown)
VH: EVQLQQSGPELVKPGVSLKISCKASGYSFTDYTMNWVKQSHGKNLEWIGLINPYIGGTRYNQKFKGKATLTVDKSSSTAYLELLSLTSEDSAVYYCARFSGSSNRAMDYWGQGTSVTVSS
VL: DIQMTQSPASLSASVGETVTITCGASENIYGALNWYQRKQGKSPQLLIYGATNLADGMSSRFSGSGSARQYSLKISSLHPDDVATYYCQNVLSIPWTFGGGTKLEIK
notes: recombinant Fab of m12
For B10, the binding result in experiment [2] is reported as “binds”.

B11: Fab 1A9 (Fab, V domains shown)
VH: QVQLQQSGAELVRPGTSVKISCKASGYTFTNYWLGWVKQRPGHGLEWIGDIYRGGGYTNYNEKFKGKATLTADTSSSTAYMQLSSLTSEDSAVYFCATRDGYFDYWGQGTTLTVSS
VL: DIQMTQSSSSFSVSLGDRTTITCKASEDIYNRLAWFQQKPGNAPRLLISGATSLETGVPSRFSGSGSGKDYTLSITSLQTEDVATYYCQQYWSSPWTFGGGTKLEIK
notes: recombinant Fab of m7
As to B11, the binding result in experiment [2] is “binds”.
